Source: US20230126689A1 (GO THERAPEUTICS, published 2023)
One block for each binder: values may come before it. Ends that are not written are not given here. * marks the point of attachment. αGalNAc = CC(=O)N[C@@H]1[C@@H](O)[C@@H](O)[C@@H](CO)O[C@@H]1*

Columns and labels:
[1] = target: T1, CD44v6 glycopeptide … with O-linked GalNAc on threonine 5 and serine 12 (human, not fully specified (residue 12)); assay: hybridoma screening (ELISA, flow cytometry, immunofluorescence)
T1 construct: Synthetic 19-residue glycopeptide made by FMOC synthesis; also called CD44v6-Tn(S + T); Tn-glycosylated CD44v6 glycopeptide
T1 peptide: GYRQT(αGalNAc)PKEDSHSTTGTAAA

[2] = target: T2, CD44v6 peptide glycoform CD44v6-Tn(S) (human, not fully specified (residue 12); also: GalNAc (Tn) on serine only, position not given here); assay: BLI (Octet); Octet; Tn(S) glycoform
T2 construct: That the serine is Ser 12 is inferred from the two-site glycopeptide
T2 peptide: GYRQTPKEDSHSTTGTAAA

[3] = target: T1, CD44v6 glycopeptide … with O-linked …; assay: BLI (Octet), apparent affinity with avidity factored in
[4] = target: T1, CD44v6 glycopeptide … with O-linked …; assay: SPR (Biacore); Biacore, not Octet
[5] = target: T3, Tn-glycosylated MUC1 (UniProt P15941 138-197, limits assumed, Tn (GalNAc) glycosylated; sites not stated for the material used); assay: Biacore (surface plasmon resonance); row MUC1-Tn, column Affinity (Biacore)
T3 construct: also called MUC1-Tn
T3 sequence (P15941 138-197 limits assumed): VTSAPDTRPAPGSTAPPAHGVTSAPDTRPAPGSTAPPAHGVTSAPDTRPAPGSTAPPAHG

binding result [1]: binds
B1: 1D12 monoclonal antibody (antibody, V domains shown)
VH: DVQLVESGGGLVQPGGSRKLSCAASGFTFSSFGIHWVRQAPEKGLEWVAYISSGSSTIYYADTVKGRFTISRDNPKNTLFLQMTSLRSEDTAMYYCARGSKVVAKSRGYWYFDVWGAGTTVTVSS
VL: DVVVTQTPLFLPVSFGDQVSISCRSSQSLANNYGITYLSWYLHRPGQSPQLLIYGISNRFSGVPDRFSGSGSGTDFTLKISTIKPEDLGMYYCLQGTHQPWTFGGGTKLEIK
notes: Murine hybridoma antibody

binding result [1]: binds
B2: 2B2 monoclonal antibody (antibody, V domains shown)
VH: EVQLVESGGGLVKPGGSLKLSCAASGFTFSSYAMSWVRQSPERRLEWVAEISSGGSYTYYPDTVTGRFTISRDNAKNTLYLEMSSLRSEDTAMYYCARTVGEDWYFDVWGAGTTVTVSS
VL: DIQMTQTTSSLSASLGDRVTISCRASQDISHYLNWYQQKPDGAVKLLIYSTSRLHSGVPSRFSGSGSGTDYSLTISNLEQEDIATYFCQQGYTLPFTFGSGTKLEIK
notes: Murine hybridoma antibody

binding result [1]: binds
B3: 10H4 monoclonal antibody (antibody, V domains shown)
VH: QSLEESGGRLVTPGTPLTLTCTASGFTINTYHMGWFRQAPGKGLQYIGIVSHDVGTYYATWAKGRFTISKTSSTTVDLRMPSPTTEDTATYICARGPGYWTFNLWGQGTLVTVSS
VL: AQVLTQTPASVSAAVGGTVTINCQASQSVYNNNQLSWYQQKPGQPLKQLIYKASTLASGVPSRFKGSGSGSQFTLTISDLECDDAATYFCAGGYKGDIHPFGGGTEVVVK
notes: Rabbit antibody

Kd [2]: 6.4 nM
Kd [3]: 7.9 nM
Kd [4]: 128 nM
Kd [5]: > 400 nM
B4: 4C8 monoclonal antibody (antibody, V domains shown)
VH: QVQLQQPGSELVRPGASVKLSCKASGYTFTSYWMHWVKQRPGQGLEWIGNIYPRSGTTNYDGYFKSKATLTVDTSSSTAYMQLSSLTSEDSAVYFCTRSGYDYPFVYWGQGTLVTVSA
VL: QAVVTQESALTTSPGETVTLTCRTSTGAVSIRNYANWVQEKPDHLFTGLIGGTNNRAPGVPARFSGSLIGDKAALTITGAQPEDEAIYFCALLYSNYWVFGGGTKLTVL
notes: Murine hybridoma antibody from Balb/c mice immunised with the KLH-conjugated CD44v6 glycopeptide; It was detected with anti-mouse IgG Fc-gamma, and used as purified mAb or as hybridoma supernatant; also called 4C8 mAb; mAb 4C8

binding result [1]: binds
B5: 18G9 monoclonal antibody (antibody, V domains shown)
VH: DVQLVESGGGLVQPGGSRKLSCAASGFTFSSFGMHWVRQAPEKGLEWVAYISSGSSTIYYADTVKGRFTISRDNPKNTLFLQMTSLRSEDTAMYYCARGSYRAMDYWGQGTSVTVSS
VL: QIVLTQSPALMSASPGEKVTMTCSASSSVNYMFWYQQKPRSSPKPWIYLTSNLASGVPARFSGSGSGTSYSLTISSMEAEDAATYYCQLWSSNPFTFGSGTKLEIK
notes: Murine hybridoma antibody
